{"source": "patent US20070218502A1", "about": "(Scripps Research, published 2007)", "key": {"[1]": {"biological_target": "T1, peptide tag (SEQ ID NO:16), unlabeled synthetic peptide (C-terminal amide)", "T1 construct": "Short peptide tag derived from the leucine zipper of the GCN4 transcription factor; also called protein tag peptide; unlabeled peptide", "T1 peptide": "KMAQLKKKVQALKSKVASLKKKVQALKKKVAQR", "assay": "equilibrium fluorescence titration"}, "[2]": {"biological_target": "T1, peptide tag (SEQ ID NO:16), unlabeled …", "assay": "equilibrium fluorescence anisotropy titration, 12.52 nM labeled peptide, 0.1x PBS, 25° C., 1:1 binding fit"}, "[3]": {"biological_target": "T2, RhoA-GTPγS (recombinant 6His-tagged RhoA pre-equilibrated with GTPγS) (UniProt P61586 1-193, limits assumed)", "T2 construct": "not shown: 6His tag", "assay": "fluorescence of mero-CBD in solution"}, "[4]": {"biological_target": "T3, cdc42-GTPγS (recombinant 6His-tagged cdc42 loaded with GTPγS) (UniProt P60953 1-191, limits assumed)", "T3 construct": "not shown: 6His tag", "assay": "fluorescence of dye-labeled CBD in solution"}, "[5]": {"biological_target": "T3, cdc42-GTPγS (recombinant 6His-tagged …)", "assay": "fluorescence of mero-CBD with saturating cdc42-GTPγS"}, "[6]": {"biological_target": "T4, human high affinity IgE receptor (FcεRI) α-chain with the NOVA-2 peptide tag at the C-terminus, expressed in … (human, UniProt P12319 26-257)", "T4 construct": "whole, on cells; Retained in the endoplasmic reticulum membrane of the cells; also called peptide-tagged FcεRI α-chain; NOVA2-tagged α-chain", "T4 sequence": "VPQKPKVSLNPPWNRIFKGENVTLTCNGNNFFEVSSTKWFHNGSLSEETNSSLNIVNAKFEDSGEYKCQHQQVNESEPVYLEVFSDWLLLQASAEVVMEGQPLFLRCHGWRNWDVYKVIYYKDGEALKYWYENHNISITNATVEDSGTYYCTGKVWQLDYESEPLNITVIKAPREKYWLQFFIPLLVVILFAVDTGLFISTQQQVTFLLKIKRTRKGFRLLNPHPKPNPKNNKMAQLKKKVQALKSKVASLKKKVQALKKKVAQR", "assay": "fluorescence imaging in live Cos-7 cells after microinjection"}}, "note": "Ends that are not written are not given here.", "data": [{"binder": "YGRKKRRNRRRPCEMAQLEKEVQALESEVASLEKEVQALEKEVAQR-NH2 (not fully specified, Peptide derived from the GCN4 leucine zipper; also called labeled peptide; TMRPep)", "values": [{"measurement": "Kd", "setting": "[1]", "result": 5, "unit": "nM"}, {"measurement": "Kd", "setting": "[2]", "result": 5.4, "unit": "nM"}]}, {"binder": "mero-CBD-F271C conjugate (Cdc42-binding fragment of human WASP, amino acids 201 to 321, F271C, labeled with merocyanine dye) (other, merocyanine dye of FIG. 11 on Cys 271 (WASP numbering), that entry has 120 residues and ends at WASP 320; also called CBD-A4C; CBD biosensor; not shown: C-terminal 6His tag from pET23a) DIQNPDITSSRYRGLPAPGPSPADKKRSGKKKISKADIGAPSGFKHVSHVGWDPQNGFDVNNLDPDLRSLCSRAGISEAQLTDAETSKLIYDFIEDQGGLEAVRQEMRRQEPLPPPPPPSR", "values": [{"measurement": "binding result", "setting": "[3]", "result": "no binding"}, {"measurement": "fold fluorescence change on binding", "setting": "[4]", "result": "~3.5", "unit": "fold"}, {"measurement": "fold increase in excitation and emission maxima", "setting": "[5]", "result": "~3.5", "unit": "fold"}]}, {"binder": "CEMAQLEKEVQALESEVASLEKEVQALEKEVAQR-NH2 (also: tetramethylrhodamine on Lys stated as position 21, which does not match a Lys in the given chain, also called rhodamine peptide biosensor; rhodamine-peptide)", "values": [{"measurement": "binding result", "setting": "[6]", "result": "binds"}]}]}
